B1: 1E12 (antibody, V domains shown)
VH: QSVKESGGRLVTPGTPLTLTCTVSGIDLSTYVMTWVRQAPGKGLECIGIIGYGGSTYYASWATGRFTISKTSTTVDLRMTSLTTEDTATYFCARGVSSNLYRGMNLWGQGTLVTVSS
VL: ALVMTQTPSPVSAAVGGTVSISCQSSPSVYSNYLSWYQQKPGQPPKLLIYETSKLESGVPSRFSGSGSGTQFTLTISGVQCDDAATYYCAGGYSGISDTFAFGGGTKVDIK
B2: 3A3, rabbit anti-EBV gB neutralizing monoclonal antibody (antibody, V domains shown)
VH: QSVKESGGRLVTPGTPLTLTCTVSGFSLSSYAMSWVRQAPGKGLEYIGVIYASGSTYYASWAKGRFTISRTATTVDLKITSPTTEDTATYFCGRGVSTNMWGPGTLVTVSS
VL: DLVMTQTPSSVSAAVGGTVTIKCQASQSLGGGLAWYQQKPGQRPKLLIYSASTLESGVPSRFRGSGSGTEFTLTISDLECADAATYYCQSAYGPTSNGLFNAFGGGTKVVIK
B3: 3A5, rabbit anti-EBV gB neutralizing monoclonal antibody (antibody, V domains shown)
VH: QSVKESGGRLVTPGTPLTLTCTVSGFSLSSYEMGWVRQAPGEGLEWIGTISTGGSSYYASWAKGRFTISRTSTTVDLKMTSLTTADTATYFCARGYGGYGIGAGYFNIWGPGTLVTVSS
VL: ALVMTQTPSSVSEPVGGTVTIKCQASQSISSYLAWYQRKPGQRPKLLIYGTSTLASGVPSRFIGSGSGTDYTLTISDLECDDAATYYCQQGFSTSNVYNSFGGGTKVDIK
B4: antigen binding fragment of 3A3 (3A3Fab) (Fab, V domains shown)
VH: B2 VH
VL: B2 VL
B5: antigen binding fragment of 3A5 (3A5Fab) (Fab, V domains shown)
VH: B3 VH
VL: B3 VL

Columns and labels:
[1] = target: ectodomain of glycoprotein B (ect-gB), Epstein-Barr virus (Epstein-Barr virus); test: native gel or EMSA
[2] = target: T1, ectodomain of glycoprotein B (ect-gB), Epstein-Barr virus (Epstein-Barr virus (HHV-4), strain M81 …)
T1 chain 1: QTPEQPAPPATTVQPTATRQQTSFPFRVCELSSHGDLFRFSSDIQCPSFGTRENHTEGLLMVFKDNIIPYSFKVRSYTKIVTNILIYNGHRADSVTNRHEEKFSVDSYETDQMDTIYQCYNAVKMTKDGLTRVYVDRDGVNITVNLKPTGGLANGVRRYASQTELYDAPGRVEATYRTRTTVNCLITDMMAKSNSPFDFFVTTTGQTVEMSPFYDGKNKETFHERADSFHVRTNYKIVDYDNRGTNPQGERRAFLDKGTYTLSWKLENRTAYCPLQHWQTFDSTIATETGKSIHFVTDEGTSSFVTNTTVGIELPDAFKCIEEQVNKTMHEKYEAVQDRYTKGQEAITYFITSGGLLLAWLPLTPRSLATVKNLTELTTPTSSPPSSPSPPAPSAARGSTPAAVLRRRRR
T1 chain 2: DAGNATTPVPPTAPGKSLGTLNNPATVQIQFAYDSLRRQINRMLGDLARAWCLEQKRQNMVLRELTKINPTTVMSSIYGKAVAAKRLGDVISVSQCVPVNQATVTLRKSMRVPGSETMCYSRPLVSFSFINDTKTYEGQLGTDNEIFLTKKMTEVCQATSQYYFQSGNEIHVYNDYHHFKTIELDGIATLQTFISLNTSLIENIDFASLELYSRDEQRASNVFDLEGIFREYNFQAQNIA

[3] = target: virion-encoded gB expressed on EBV-positive Akata cells (Epstein-Barr virus (HHV-4), strain …, UniProt P03188, strain); test: cell-based or functional assay
[4] = target: T1, ectodomain of glycoprotein B (ect-gB), …; test: SPR

| Molecule | IC50 of neutralization of Akata-EBV infection of HNE1 epithelial cells [3] | IC50 of neutralization of CNE2-EBV infection of Akata B cells [3] | Kd [4] | further results |
| --- | --- | --- | --- | --- |
| ectodomain of glycoprotein B (ect-gB), Epstein-Barr virus (domain or fragment) |  |  |  | stoichiometry N [1]: 3 |
| B1 |  |  |  | binding result [2]: binds |
| B2 | 0.08 µg/mL | 2.97 µg/mL |  |  |
| B3 | 0.31 µg/mL | 4.9 µg/mL |  |  |
| B4 |  |  | ~3.49 nM |  |
| B5 |  |  | ~3.93 nM |  |

Source: PMC9371650 (Proceedings of the National Academy of Sciences of the …, 2022)
